Results on five substances are retold here after US20150086580A1.

Test [1] deals with H77c core-E1ΔHVR1E2 HCVpp (HCV E1E2 without HVR1) (Hepatitis C virus genotype 1a, isolate H77C) (UniProt P27958). The test can be described thus: binding affinity to HCVpp (method not given).
In test [2] the target is H77c core-E1E2 HCVpp (HCV E1E2 with HVR1) (Hepatitis C virus genotype 1a, isolate H77C). The test can be described thus: binding affinity to HCVpp (method not given).

As usually defined, the Kd is the constant that tells how readily two partners part at equilibrium. High values mean weaker binding, low ones tighter binding. For the substance CBH-4D (antibody), the values for the Kd in test [1] and in test [2] were 480 pM and 840 pM, respectively.
The matching figures for CBH-4G (antibody): 5290 pM and 5430 pM.
In the case of CBH-5 (antibody), the results for the Kd in test [1] and in test [2] were 560 pM and 4000 pM, respectively.
For CBH-7 (antibody), the Kd in test [1] was 80 pM; in test [2], 240 pM.
As for CBH-23 (antibody), the figures for the Kd in test [1] and in test [2] were 90 pM and 170 pM, respectively.
